Substitutions are numbered along the chain they refer to.

Test [1] deals with T1, NA of influenza B-Victoria lineage virus B/Colorado/06/2017 (B/Vic CO17) (Influenza B virus B/Colorado/06/2017 …, UniProt A0A1X9RX69).
T1 construct: not shown: His6, N-terminal, kept
Nature of the test: ELISA. The note with it: both partners purified.

Test [2] has as its target sNAp of A/New Caledonia/20/1999 (NC99, H1N1) NA (Influenza A virus A/New …, UniProt Q7TG96, stabilised). Kind of test: ELISA. The note with it: both partners purified.

B1: NCS.1.1 mAb (IgG) (antibody, V domains shown)
VH: QVQLQESGPRLVKPSETLSLTCSVSGESISSGGYYWTWIRQHPGKGLEWIGNIFDTGSTDYSPSLKTRLTISIDTSKNQFYLRLNSATAADTAVYYCARVGFSLETDRPYYLGLDVWGQGTTVTVSS
VL: DIVMTQSPLSLPVTPGEPASISCRSSQSLLHSNGYTYLDWYLQKPGQSPQLLISFTSNRASGVPDRFSGSGSGTYFTLKISRVEAEDVGVYYCMQAVQTPWTFGQGTKVEIK
notes: copies: 2 + 2
For the molecule B1, the binding result in test [1] and in test [2] was “binds” each time.

B2: NCS.1.3 mAb (IgG) (antibody, V domains shown)
VH: B1 VH with N85T
VL: B1 VL with S10T, S54Y, T56A, T99S
notes: copies: 2 + 2
Take B2: the binding result in test [1] and in test [2] was “binds” throughout.

For the origin of these results see publication doi:10.1101/2024.11.27.625426 (bioRxiv, 2024).
